From patent US20190111032A1 (GEORGIA STATE UNIVERSITY RESEARCH FOUNDATION, published 2019) come the findings set out here.

The series deals with the molecule itself. Kind of series: size exclusion chromatography and non-reducing SDS-PAGE. As for the experimental part:
hCaSR-ECD (from residue Tyr²⁰ to Phe⁶¹²) (FIG. 1) was expressed in suspension culture of HEK293S (GnTI-) cells and purified from the culture medium by Ni²⁺-NTA chromatography as previously described. To deglycosylate the purified protein, hCaSR-ECD was incubated with recombinant endoglycosidase F1 (Endo F1) at a 1:100 mass ratio of Endo F1 to hCaSR-ECD²⁶ overnight at 4° C. in 10 mM Tris buffer, pH 7.4. Further separation of hCaSR-ECD from Endo F1 was achieved by size exclusion chromatography (SEC) in 10 mM HEPES (pH 7.3) buffer. hCaSR-ECD forms a homodimer, as determined by the elution volume observed in SEC.
For orientation: SEC sorts molecules by how far they enter the pores of the column.

B1: extracellular domain of the human calcium-sensing receptor (hCaSR-ECD), residues Tyr20 to Phe612 (receptor, UniProt P41180 20-612, looked up)
chain: YGPDQRAQKKGDIILGGLFPIHFGVAAKDQDLKSRPESVECIRYNFRGFRWLQAMIFAIEEINSSPALLPNLTLGYRIFDTCNTVSKALEATLSFVAQNKIDSLNLDEFCNCSEHIPSTIAVVGATGSGVSTAVANLLGLFYIPQVSYASSSRLLSNKNQFKSFLRTIPNDEHQATAMADIIEYFRWNWVGTIAADDDYGRPGIEKFREEAEERDICIDFSELISQYSDEEEIQHVVEVIQNSTAKVIVVFSSGPDLEPLIKEIVRRNITGKIWLASEAWASSSLIAMPQYFHVVGGTIGFALKAGQIPGFREFLKKVHPRKSVHNGFAKEFWEETFNCHLQEGAKGPLPVDTFLRGHEESGDRFSNSSTAFRPLCTGDENISSVETPYIDYTHLRISYNVYLAVYSIAHALQDIYTCLPGRGLFTNGSCADIKKVEAWQVLKHLRHLNFTNNMGEQVTFDECGDLVGNYSIINWHLSPEDGSIVFKEVGYYNVYAKKGERLFINEEKILWSGFSREVPFSNCSRDCLAGTRKGIIEGEPTCCFECVECPDGEYSDETDASACNKCPDDFWSNENHTSCIAKEIEFLSWTEPF
modifications: N-glycans trimmed with endoglycosidase F1 before SEC and crystallization (expressed in HEK293S GnTI- cells)
notes: range 20-612; This entry is one protomer; also called ECD of CaSR
For B1, the binding result was “binds”.
